Data taken from paper PMC4740771, “Nucleotide-dependent assembly of the peroxisomal receptor export complex” (Scientific Reports, 2016).

B1: GST-Pex15p(1-315)His (domain or fragment, S. cerevisiae, UniProt Q08215 1-315, looked up)
chain: MAASEIMNNLPMHSLDSSLRDLLNDDLFIESDESTKSVNDQRSEVFQECVNLFIKRDIKDCLEKMSEVGFIDITVFKSNPMILDLFVSACDIMPSFTKLGLTLQSEILNIFTLDTPQCIETRKIILGDLSKLLVINKFFRCCIKVIQFNLTDHTEQEEKTLELESIMSDFIFVYITKMRTTIDVVGLQELIEIFIFQVKVKLHHKKPSPNMYWALCKTLPKLSPTLKGLYLSKDVSIEDAILNSIDNKIQKDKAKSKGKQRGVKQKIHHFHEPMLHNSSEEQVKVEDAFNQRTSTDSRLQSTGTAPRKKNNDITV
notes: Pex15p, tail-anchored peroxisomal membrane protein of S. cerevisiae (genomic DNA of strain UTL-7A), cytosolic part, residues 1 to 315; also called cytosolic domain of Pex15p; source: E. coli BL21 (DE3), purified (Glutathione Agarose 4B, dialysis); not shown: GST, N-terminal, kept; His6, C-terminal, kept
B2: HisPex1p released from HisPex1pGST by thrombin (natural protein, S. cerevisiae, UniProt P24004 1-1043, looked up)
chain: MTTTKRLKFENLRIQFSNAIVGNFLRLPHSIINVLESTNYAIQEFGIAVHSHNSDIPIVHLGWDGHDSGSSENVVLINPVLATVYDLNQKSPLVDLYIQRYDHTHLATEVYVTPETSDDWEIIDANAMRFQNGEILHQTRIVTPGETLICYLEGIVTKFKIDRVEPSMKSARITDGSLVVVAPKVNKTRLVKAEYGHSNKTILKNGAIQLLKKVILRSTVCKMDFPKDNLFVVYISDGAQLPSQKGYASIVKCSLRQSKKSDSDNKSVGIPSKKIGVFIKCDSQIPENHIALSSHLWDAFFTHPMNGAKIKLEFLQMNQANIISGRNATVNIKYFGKDVPTKSGDQYSKLLGGSLLTNNLILPTEQIIIEIKKGESEQQLCNLNEISNESVQWKVTQMGKEEVKDIIERHLPKHYHVKETGEVSRTSKDEDDFITVNSIKKEMVNYLTSPIIATPAIILDGKQGIGKTRLLKELINEVEKDHHIFVKYADCETLHETSNLDKTQKLIMEWCSFCYWYGPSLIVLDNVEALFGKPQANDGDPSNNGQWDNASKLLNFFINQVTKIFNKDNKRIRVLFSGKQKTQINPLLFDKHFVSETWSLRAPDKHARAKLLEYFFSKNQIMKLNRDLQFSDLSLETEGFSPLDLEIFTEKIFYDLQLERDCDNVVTRELFSKSLSAFTPSALRGVKLTKETNIKWGDIGALANAKDVLLETLEWPTKYEPIFVNCPLRLRSGILLYGYPGCGKTLLASAVAQQCGLNFISVKGPEILNKFIGASEQNIRELFERAQSVKPCILFFDEFDSIAPKRGHDSTGVTDRVVNQLLTQMDGAEGLDGVYILAATSRPDLIDSALLRPGRLDKSVICNIPTESERLDILQAIVNSKDKDTGQKKFALEKNADLKLIAEKTAGFSGADLQGLCYNAYLKSVHRWLSAADQSEVVPGNDNIEYFSINEHGRREENRLRLKTLLQQDVVHETKTSTSAASELTAVVTINDLLEACQETKPSISTSELVKLRGIYDRFQKDRNGEMPNGENSIDIGSRLSLM
notes: Pex1p, type II AAA-ATPase peroxin of yeast; The GST tag held the complex on GSH-agarose during purification and stayed on the column after thrombin cleavage; source: E. coli Tuner (DE3), co-purified with HisPex6p (NiNTA-agarose, GSH-agarose, thrombin release); not shown: His6, N-terminal, kept; GST, C-terminal, cleaved

Key:
[1] = target: T1, HisPex6p (S. cerevisiae, UniProt P33760 1-1030); test: pull-down; GST-Pex15p(1-315)His incubated with purified proteins, loaded on GSH-agarose, eluted with glutathione; 5 mM ATP; Coomassie and immunoblot, signal intensities of load and eluate; details: both partners purified
T1 construct: Pex6p, type II AAA-ATPase peroxin of yeast; also called single Pex6p; isolated Pex6p; source: E. coli Tuner (DE3), purified (NiNTA-agarose; with HisPex1pGST also GSH-agarose and size exclusion); not shown: His6, N-terminal, kept
T1 sequence (looked up): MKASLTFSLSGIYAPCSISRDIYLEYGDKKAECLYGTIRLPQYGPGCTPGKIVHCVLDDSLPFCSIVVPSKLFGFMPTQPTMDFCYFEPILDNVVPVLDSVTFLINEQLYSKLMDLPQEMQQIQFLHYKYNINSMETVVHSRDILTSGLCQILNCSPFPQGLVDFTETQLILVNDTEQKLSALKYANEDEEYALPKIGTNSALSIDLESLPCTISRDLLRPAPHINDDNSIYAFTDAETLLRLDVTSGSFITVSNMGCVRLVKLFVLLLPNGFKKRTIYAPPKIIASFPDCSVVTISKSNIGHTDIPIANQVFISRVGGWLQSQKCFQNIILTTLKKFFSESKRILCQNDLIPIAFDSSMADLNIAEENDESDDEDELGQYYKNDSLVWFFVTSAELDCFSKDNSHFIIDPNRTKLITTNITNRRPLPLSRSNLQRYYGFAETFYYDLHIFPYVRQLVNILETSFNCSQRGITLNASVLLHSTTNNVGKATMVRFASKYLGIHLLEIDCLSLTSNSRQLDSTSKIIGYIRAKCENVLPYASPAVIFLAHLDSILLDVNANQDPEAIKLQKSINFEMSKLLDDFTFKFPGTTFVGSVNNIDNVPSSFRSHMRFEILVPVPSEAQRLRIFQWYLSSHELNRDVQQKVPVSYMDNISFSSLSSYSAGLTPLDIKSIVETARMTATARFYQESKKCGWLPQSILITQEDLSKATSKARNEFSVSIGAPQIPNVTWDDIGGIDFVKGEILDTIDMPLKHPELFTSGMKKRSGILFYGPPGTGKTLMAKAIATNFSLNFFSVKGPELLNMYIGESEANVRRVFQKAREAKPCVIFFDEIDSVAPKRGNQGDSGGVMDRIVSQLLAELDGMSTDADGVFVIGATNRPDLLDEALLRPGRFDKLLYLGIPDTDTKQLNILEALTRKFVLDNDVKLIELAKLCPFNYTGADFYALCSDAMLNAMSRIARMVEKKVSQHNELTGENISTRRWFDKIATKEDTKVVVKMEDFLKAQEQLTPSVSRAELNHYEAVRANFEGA

[2] = target: T2, Pex1/6p-complex (recombinant heterohexameric AAA-complex) (S. cerevisiae, UniProt P24004 1-1043; P33760 1-1030); test: as above; details: both partners purified
T2 construct: Pex1p of yeast, as the chain of m3; Pex6p of yeast, as the chain of m2; Described as a trimer of Pex1/6p dimers (heterohexamer, about 700 kDa); Isolated in 5 mM ATP or 5 mM ADP as said for each assay; also called Pex1p/Pex6p-complex; wild-type Pex1/6p; source: E. coli Tuner (DE3), cells mixed and lysed, co-purified (NiNTA-agarose, GSH-agarose, thrombin release, size exclusion); not shown: His6, …

[3] = target: T3, Pex1WB/6p complex (Pex1p E798Q with wild-type Pex6p) (S. cerevisiae, UniProt P24004 1-1043; P33760 1-1030, E798Q); test: as above; details: both partners purified
T3 construct: Pex1p of yeast with the Walker B mutation of the D2 domain; Pex6p of yeast, as the chain of m2; also called Pex1WB^E798Q/6p; not shown: His6, N-terminal, kept; GST, C-terminal, cleaved; copies: 3 + 3

[4] = target: T4, Pex1/6pWB complex (wild-type Pex1p with Pex6p E832Q) (S. cerevisiae, UniProt P24004 1-1043; P33760 1-1030, E832Q); test: as above; details: both partners purified
T4 construct: Pex1p of yeast, as the chain of m3; Pex6p of yeast with the Walker B mutation of the D2 domain; also called Pex1p/Pex6pWB; Pex6WB mutant complex; not shown: His6, N-terminal, kept; GST, C-terminal, cleaved; copies: 3 + 3

[5] = target: the molecule itself; test: SEC; as a1 but isolated and run in the presence of 5 mM ADP instead of ATP

Binder | binding result [1] | binding result [2] | binding result [3] | binding result [4] | stoichiometry N [5]
B1 | binds | binds | binds | binds | –
B2 | – | – | – | – | 3
